For data set [1] the following is noted: reported on PubChem; cited from earlier work.
The test system of data set [2] is caerulein-induced CP mice. Briefly: Antifibrotic efficacy of targeted delivery of apigenin in caerulein-induced CP mice (H&E, picrosirius red, fibronectin). Type of data set: in vivo, mouse (C57BL/6J). Conditions: CP mice pancreas after 3-week treatment; free drug 2 mg/kg oral 6 days per week, liposomes 6 mg/kg i.v. twice per week. The protocol:
Apigenin treatments lasted for 3 weeks for the remaining 3 weeks of caerulein induction. […] Pancreata were perfused, harvested, and paraffin-embedded for immunohistochemistry staining. Livers were perfused, harvested, and partially paraffin-embedded for histology staining. […] Singh et al., 2012). […] The quantification of picrosirius red was determined by Image J, using threshold applied on the red composites of the RGB images. […] Fibronectin expression was quantified using the positive pixel count function on QuPath software (Bankhead et al., 2017). […] Serum alanine aminotransferase (ALT) and blood urea nitrogen (BUN) were determined on […] 8008 Chemistry Analyzer (IDEXX, Westbrook, Maine, United States of America). […] To test the antifibrotic efficacy of targeted liposomes, we evaluated the pharmacodynamics of apigenin in the free drug form, encapsulated in non-targeted liposomes and in ECM liposomes (FIG. 11A). ECM liposomes without drug loading were included in the study as vehicle control. C57BL/6J mice were injected with caerulein 14 days before treatment started to establish inflammation in the pancreas. […] FIGS. 11D and 11G). […] FIGS. 11C and 11F).

In data set [3] the target is cytokeratin 7 (CK-7) (mouse) (UniProt Q9DCV7). Kind of data set: IF colocalization (JACoP) of VT680 phage with marker, CP mouse pancreas sections.
Chain of UniProt Q9DCV7 (Q9DCV7 2-457): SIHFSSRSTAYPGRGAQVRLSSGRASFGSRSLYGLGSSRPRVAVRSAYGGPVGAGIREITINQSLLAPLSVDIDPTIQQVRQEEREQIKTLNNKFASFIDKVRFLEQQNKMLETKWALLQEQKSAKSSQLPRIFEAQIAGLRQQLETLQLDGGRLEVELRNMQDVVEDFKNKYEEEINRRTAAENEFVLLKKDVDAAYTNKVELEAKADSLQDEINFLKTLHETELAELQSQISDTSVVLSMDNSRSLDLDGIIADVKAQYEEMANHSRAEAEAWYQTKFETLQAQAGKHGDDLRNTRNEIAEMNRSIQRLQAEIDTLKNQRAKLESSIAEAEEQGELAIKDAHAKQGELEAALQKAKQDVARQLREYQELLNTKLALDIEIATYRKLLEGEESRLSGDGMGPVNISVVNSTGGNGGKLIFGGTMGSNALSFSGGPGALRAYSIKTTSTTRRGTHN
The next data set concerns the target CD31 (mouse) (UniProt Q08481). The data set is described as above.
Chain of UniProt Q08481 (Q08481 18-727): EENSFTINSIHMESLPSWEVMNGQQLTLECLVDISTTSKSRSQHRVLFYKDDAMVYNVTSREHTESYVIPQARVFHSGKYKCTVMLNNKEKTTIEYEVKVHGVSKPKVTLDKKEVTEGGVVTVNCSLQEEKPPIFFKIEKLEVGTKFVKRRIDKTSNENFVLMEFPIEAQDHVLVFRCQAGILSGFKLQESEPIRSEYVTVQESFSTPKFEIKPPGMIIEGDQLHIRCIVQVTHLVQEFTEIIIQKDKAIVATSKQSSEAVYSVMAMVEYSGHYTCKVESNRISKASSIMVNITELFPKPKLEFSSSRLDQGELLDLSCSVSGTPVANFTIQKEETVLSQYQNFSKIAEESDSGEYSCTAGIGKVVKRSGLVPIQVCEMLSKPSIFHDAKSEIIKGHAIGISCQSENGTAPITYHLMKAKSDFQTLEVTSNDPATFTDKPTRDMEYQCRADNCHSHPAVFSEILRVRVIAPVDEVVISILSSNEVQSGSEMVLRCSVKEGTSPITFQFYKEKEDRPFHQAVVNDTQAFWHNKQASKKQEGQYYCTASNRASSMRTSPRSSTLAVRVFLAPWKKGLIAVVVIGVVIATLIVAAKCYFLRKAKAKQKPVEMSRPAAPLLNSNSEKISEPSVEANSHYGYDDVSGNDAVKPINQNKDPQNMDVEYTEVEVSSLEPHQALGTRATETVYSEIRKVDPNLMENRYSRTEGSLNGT
The next data set addresses collagen IIIa (mouse) (UniProt P08121). Described as above.
Chain of UniProt P08121 (P08121 155-1219): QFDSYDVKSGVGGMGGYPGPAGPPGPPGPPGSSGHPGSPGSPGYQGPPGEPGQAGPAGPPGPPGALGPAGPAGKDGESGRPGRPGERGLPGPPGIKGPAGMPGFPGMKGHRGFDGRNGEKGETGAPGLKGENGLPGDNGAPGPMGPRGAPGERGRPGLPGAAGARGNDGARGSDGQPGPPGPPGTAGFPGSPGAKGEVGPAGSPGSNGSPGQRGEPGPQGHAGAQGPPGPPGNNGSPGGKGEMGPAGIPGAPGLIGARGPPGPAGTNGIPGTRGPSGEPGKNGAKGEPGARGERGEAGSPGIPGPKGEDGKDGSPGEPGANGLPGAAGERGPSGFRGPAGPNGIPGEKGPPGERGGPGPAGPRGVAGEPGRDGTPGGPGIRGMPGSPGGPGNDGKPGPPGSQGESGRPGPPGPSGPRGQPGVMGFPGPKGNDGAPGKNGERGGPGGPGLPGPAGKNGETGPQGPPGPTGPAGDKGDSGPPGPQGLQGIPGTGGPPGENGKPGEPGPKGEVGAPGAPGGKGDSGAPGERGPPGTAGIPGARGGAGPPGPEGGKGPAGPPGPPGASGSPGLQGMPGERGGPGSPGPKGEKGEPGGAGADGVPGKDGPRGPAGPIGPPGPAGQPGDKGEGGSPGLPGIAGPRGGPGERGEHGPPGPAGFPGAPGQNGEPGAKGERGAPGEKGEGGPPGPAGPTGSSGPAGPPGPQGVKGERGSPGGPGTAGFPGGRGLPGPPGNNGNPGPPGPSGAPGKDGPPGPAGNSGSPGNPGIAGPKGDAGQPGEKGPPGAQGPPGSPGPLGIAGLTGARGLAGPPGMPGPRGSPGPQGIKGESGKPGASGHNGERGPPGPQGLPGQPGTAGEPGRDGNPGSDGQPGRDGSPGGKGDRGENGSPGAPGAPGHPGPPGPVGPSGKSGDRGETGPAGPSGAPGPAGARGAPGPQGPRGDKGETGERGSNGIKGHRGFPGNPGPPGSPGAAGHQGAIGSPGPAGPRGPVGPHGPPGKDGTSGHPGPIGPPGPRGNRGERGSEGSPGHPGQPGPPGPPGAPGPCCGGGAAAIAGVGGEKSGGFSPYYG
In data set [4] the target is carboxypeptidase A1 (CPA1) (mouse) (UniProt Q7TPZ8). The description is as above.
Chain of UniProt Q7TPZ8 (Q7TPZ8 111-419): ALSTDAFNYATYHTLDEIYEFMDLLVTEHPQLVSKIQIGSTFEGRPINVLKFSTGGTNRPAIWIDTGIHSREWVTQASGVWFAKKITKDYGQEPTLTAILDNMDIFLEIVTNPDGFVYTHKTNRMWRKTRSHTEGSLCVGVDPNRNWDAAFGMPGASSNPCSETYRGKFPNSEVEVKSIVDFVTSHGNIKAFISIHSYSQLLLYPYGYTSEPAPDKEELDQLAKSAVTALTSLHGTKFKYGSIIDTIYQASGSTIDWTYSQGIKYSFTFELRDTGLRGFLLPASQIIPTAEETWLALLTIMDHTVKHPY
The target in the next data set is F4/80 (mouse) (UniProt Q61549). The data set is described as above.
Chain of UniProt Q61549 (Q61549 28-931): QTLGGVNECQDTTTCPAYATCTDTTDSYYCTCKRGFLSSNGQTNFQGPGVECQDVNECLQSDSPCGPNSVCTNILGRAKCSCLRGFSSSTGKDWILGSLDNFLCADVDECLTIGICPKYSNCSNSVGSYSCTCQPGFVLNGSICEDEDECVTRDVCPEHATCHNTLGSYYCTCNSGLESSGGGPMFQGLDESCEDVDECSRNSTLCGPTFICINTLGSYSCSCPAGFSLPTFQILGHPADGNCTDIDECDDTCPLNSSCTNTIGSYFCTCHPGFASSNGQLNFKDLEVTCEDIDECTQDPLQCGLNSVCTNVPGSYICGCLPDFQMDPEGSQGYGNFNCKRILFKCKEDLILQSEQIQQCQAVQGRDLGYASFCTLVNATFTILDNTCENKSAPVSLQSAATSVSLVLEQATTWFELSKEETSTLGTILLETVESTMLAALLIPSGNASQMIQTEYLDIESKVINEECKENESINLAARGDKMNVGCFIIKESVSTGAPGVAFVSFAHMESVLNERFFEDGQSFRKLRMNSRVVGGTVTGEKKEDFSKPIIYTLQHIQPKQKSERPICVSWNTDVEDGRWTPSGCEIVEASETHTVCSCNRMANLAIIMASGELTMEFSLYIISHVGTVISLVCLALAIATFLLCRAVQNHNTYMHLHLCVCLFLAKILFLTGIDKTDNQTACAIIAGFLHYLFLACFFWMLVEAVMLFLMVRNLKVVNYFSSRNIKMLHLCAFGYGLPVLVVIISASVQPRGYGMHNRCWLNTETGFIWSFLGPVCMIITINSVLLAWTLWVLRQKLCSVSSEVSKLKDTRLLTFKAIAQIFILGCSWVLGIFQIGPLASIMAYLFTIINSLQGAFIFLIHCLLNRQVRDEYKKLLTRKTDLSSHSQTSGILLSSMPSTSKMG

For orientation: Log P means the decadic logarithm of the partition coefficient of the neutral form, usually between octanol and water.

For `O=c1cc(-c2ccc(O)cc2)oc2cc(O)cc(O)c12` [Apigenin, 4′,5,7-trihydroxyflavone], in data set [1], the “Charge (ph 7.4)” value is given as 0, the log partition coefficient (Log P) is 1.7, the “Water Solubility” value was 183 mg/mL and the pKa1 is 7.12. Moreover, in data set [1], the pKa2 is reported as 8.10. Further, the “collagen deposition (Picrosirius red-positive area)” value in data set [2] is 24.90 % area.
In the case of “HPYSPLR (SEQ ID NO: 11) phage clone (peptide)”, the mean Manders' correlation coefficient (MCC), fraction of phage overlapping cell marker in data set [3] amounted to 0.08; with CD31 (mouse), 0.35; with collagen IIIa (mouse), 0.27; in data set [4], 0.25; in the data set with F4/80 (mouse), 0.41.
With “KTYVPTT (SEQ ID NO: 14) phage clone (peptide)”, the mean Manders' correlation coefficient (MCC), fraction of phage overlapping cell marker in data set [3] was found to be 0.06; with CD31 (mouse) it was 0.2; with collagen IIIa (mouse), 0.23; in data set [4] it was 0.26; with F4/80 (mouse), 0.31.
As to “MNSIAIP (SEQ ID NO: 20) phage clone (peptide)”, the mean Manders' correlation coefficient (MCC), fraction of phage overlapping cell marker in data set [3] is 0.05; with CD31 (mouse), 0.24; in the data set with collagen IIIa (mouse), 0.34; in data set [4] it was 0.63; in the data set with F4/80 (mouse) it was 0.37.
“SLPLGPM (SEQ ID NO: 26) phage clone (peptide)”: the mean Manders' correlation coefficient (MCC), fraction of phage overlapping cell marker in data set [3] was determined as 0.06; with CD31 (mouse) it was 0.25; with collagen IIIa (mouse), 0.23; in data set [4], 0.35; in the data set with F4/80 (mouse), 0.49.
For “SNSQDLH (SEQ ID NO: 28) phage clone (peptide)” the same measures were 0.14, 0.12, 0.33, 0.23 and 0.8.

The record behind these values is patent US20240115729A1, “COMPOSITIONS AND METHODS FOR TARGETED ANTIFIBROTIC THERAPY IN CHRONIC PANCREATITIS” (University of Virginia Patent Foundation, priority 2021, published 2024).
